In publication PMC9853177 (2023):

Target: linear tetra-ubiquitin (M1-linked Ub4) (Homo sapiens, UniProt P0CG47)
Assay: ITC

B1: HOIL-1 (protein)
chain: MDEKTKKAEEMALSLTRAVAGGDEQVAMKCAIWLAEQRVPLSVQLKPEVSPTQDIRLWVSVEDAQMHTVTIWLTVRPDMTVASLKDMVFLDYGFPPVLQQWVIGQRLARDQETLHSHGVRQNGDSAYLYLLSARNTSLNPQELQRERQLRMLEDLGFKDLTLQPRGPLEPGPPKPGVPQEPGRGQPDAVPEPPPVGWQCPGCTFINKPTRPGCEMCCRARPEAYQVPASYQPDEEERARLAGEEEALRQYQQRKQQQQEGNYLQHVQLDQRSLVLNTEPAECPVCYSVLAPGEAVVLRECLHTFCRECLQGTIRNSQEAEVSCPFIDNTYSCSGKLLEREIKALLTPEDYQRFLDLGISIAENRSAFSYHCKTPDCKGWCFFEDDVNEFTCPVCFHVNCLLCKAIHEQMNCKEYQEDLALRAQNDVAARQTTEMLKVMLQQGEAMRCPQCQIVVQKKDGCDWIRCTVCHTEICWVTKGPRWGPGGPGDTSGGCRCRVNGIPCHPSCQNCH
Kd: 90 nM
